Assay results published in article PMC7946950.
Where two headings read alike, the source gives them in different places.

Legend:
[1] = biological target: Coagulation Factor XIa (human) (UniProt P03951); experiment: kinetics of protease inhibition (second order rate constant k2, discontinuous method, residual protease activity); protease 5-75 nM, at least 10:1 molar ratio of AAT variant to protease (pseudo-first order), 37 °C, PPNE buffer (20 mM sodium phosphate pH 7.4, 100 mM NaCl, 0.1 mM EDTA, 0.1% polyethylene glycol 8000)
thrombin (human) [2] = experiment: as above
[3] = biological target: Coagulation Factor XIa (human) (UniProt P03951); experiment: as above; remark: listed apart in the source
[4] = biological target: Coagulation Factor XIa (human) (UniProt P03951); experiment: stoichiometry of inhibition (SI) titration, residual FXIa activity; varying ratios of AAT variant to FXIa incubated at ambient temperature for 2 h; residual FXIa activity determined at 37 °C; regression to zero activity
thrombin (human) [5] = experiment: kinetics of protease inhibition (second order rate constant k2, discontinuous method, residual protease activity); protease 5-75 nM, at least 10:1 molar ratio of AAT variant to protease (pseudo-first order), 37 °C, PPNE buffer (20 mM sodium phosphate pH 7.4, 100 mM NaCl, 0.1 mM EDTA, 0.1% polyethylene glycol 8000); remark: listed apart in the source
[6] = biological target: Coagulation Factor XIa (human) (UniProt P03951); experiment: as above; remark: listed apart in the source
Factor XIIa (human) = experiment: as above
Factor Xa (human) = experiment: as above
kallikrein (human) = experiment: as above
[7] = biological target: Activated Protein C (human); experiment: as above

Row | Sequence | k2 (second order rate constant of inhibition) [1] | stoichiometry of inhibition (SI) [4] | k2 (second order rate constant of inhibition) [6] [M⁻¹ s⁻¹] | also measured
1 | AAT M358R (alpha-1 antitrypsin M358R), arabinose-inducible system (natural protein) | 180000 M⁻¹ s⁻¹ |  |  | k2 (second order rate constant of inhibition) (thrombin (human) [2]): 160000 M⁻¹ s⁻¹; k2 (second order rate constant of inhibition) [3]: 190000 M⁻¹ s⁻¹
2 | AAT M358R (alpha-1 antitrypsin M358R), cleavable GST fusion system (natural protein) | 170000 M⁻¹ s⁻¹ | 2.1 | 160000 | k2 (second order rate constant of inhibition) (thrombin (human) [5]): 210000 M⁻¹ s⁻¹; k2 (second order rate constant of inhibition) (Factor XIIa (human)): 23000 M⁻¹ s⁻¹; k2 (second order rate constant of inhibition) (Factor Xa (human)): 35000 M⁻¹ s⁻¹; k2 (second order rate constant of inhibition) (kallikrein (human)): 40000 M⁻¹ s⁻¹; k2 (second order rate constant of inhibition) [7]: 40000 M⁻¹ s⁻¹
3 | AAT M358R/QSIIS, arabinose-inducible system (designed binder) |  |  |  | k2 (second order rate constant of inhibition) (thrombin (human) [2]): 100000 M⁻¹ s⁻¹
4 | AAT M358R/PRSTE, cleavable GST fusion system (designed binder) |  | 3.3 | 41000 | k2 (second order rate constant of inhibition) (thrombin (human) [5]): 1200 M⁻¹ s⁻¹
5 | AAT M358R/PRSLD, from the pBAD P2'/P3' bacterial expression library (designed binder) | 38000 |  |  | 
6 | AAT M358R/HASTGQ, cleavable GST fusion system (designed binder) |  | 12.7 | 34000 | 
7 | AAT M358R/PRSTE, from the pBAD P2'/P3' bacterial expression library (designed binder) | 45000 |  |  | 
